Residue numbers refer to the chain shown, from its start. Numbers in names are those of the source.
What was measured:
[1] = molecular target: Sb44, synthetic nanobody (sybody) against TGP; experiment: SEC; TGP (or Cys mutant) and sybody (or mutant) mixed 1:3 on ice for 20 min; Superdex 200 Increase 10/300 GL; 150 mM NaCl, 20 mM HEPES pH 7.5; absorbance at 493 nm and 280 nm
Sb44 V100C [2] = experiment: SDS-PAGE (non-reducing); individually purified proteins; Laemmli sample buffer without DTT; 12% gel; Coomassie and in-gel fluorescence; shows disulfide-linked species
Sb44 V100C [3] = experiment: SEC; TGP (or Cys mutant) and sybody (or mutant) mixed 1:3 on ice for 20 min; Superdex 200 Increase 10/300 GL; 150 mM NaCl, 20 mM HEPES pH 7.5; absorbance at 493 nm and 280 nm

B1: Sb44, synthetic nanobody (sybody) against TGP (VHH)
VHH: QVQLVESGGGLVQAGGSLRLSCAASGFPVGRASMWWYRQAPGKEREWVAAISSYGWVTAYADSVKGRFTISRDNAKNTVYLQMNSLKPEDTAVYYCEVSVGTGYRGQGTQVTVSA
B1 showed a stoichiometry N [1] of 2.

B2: Sb44 V100C (VHH)
VHH: B1 VHH with V100C
Work on B2 yielded a stoichiometry N (Sb44 V100C [2]) of 2 and a stoichiometry N (Sb44 V100C [3]) of 2.

Reference: PMC12368520
